Test results taken from paper PMC4534575, “The RNA Helicase DHX34 Activates NMD by Promoting a Transition from the Surveillance to the Decay-Inducing Complex” (Cell Reports, 2014).

Target: T1, T7-DHX34 (wild-type) (human, UniProt Q14147 1-1143)
T1 construct: Human DHX34, wild type; also called T7-tagged DHX34; shRNA-resistant (R) wild-type T7-DHX34; source: HEK293T, transiently transfected, in lysate; also purified on T7 agarose beads
T1 sequence (looked up): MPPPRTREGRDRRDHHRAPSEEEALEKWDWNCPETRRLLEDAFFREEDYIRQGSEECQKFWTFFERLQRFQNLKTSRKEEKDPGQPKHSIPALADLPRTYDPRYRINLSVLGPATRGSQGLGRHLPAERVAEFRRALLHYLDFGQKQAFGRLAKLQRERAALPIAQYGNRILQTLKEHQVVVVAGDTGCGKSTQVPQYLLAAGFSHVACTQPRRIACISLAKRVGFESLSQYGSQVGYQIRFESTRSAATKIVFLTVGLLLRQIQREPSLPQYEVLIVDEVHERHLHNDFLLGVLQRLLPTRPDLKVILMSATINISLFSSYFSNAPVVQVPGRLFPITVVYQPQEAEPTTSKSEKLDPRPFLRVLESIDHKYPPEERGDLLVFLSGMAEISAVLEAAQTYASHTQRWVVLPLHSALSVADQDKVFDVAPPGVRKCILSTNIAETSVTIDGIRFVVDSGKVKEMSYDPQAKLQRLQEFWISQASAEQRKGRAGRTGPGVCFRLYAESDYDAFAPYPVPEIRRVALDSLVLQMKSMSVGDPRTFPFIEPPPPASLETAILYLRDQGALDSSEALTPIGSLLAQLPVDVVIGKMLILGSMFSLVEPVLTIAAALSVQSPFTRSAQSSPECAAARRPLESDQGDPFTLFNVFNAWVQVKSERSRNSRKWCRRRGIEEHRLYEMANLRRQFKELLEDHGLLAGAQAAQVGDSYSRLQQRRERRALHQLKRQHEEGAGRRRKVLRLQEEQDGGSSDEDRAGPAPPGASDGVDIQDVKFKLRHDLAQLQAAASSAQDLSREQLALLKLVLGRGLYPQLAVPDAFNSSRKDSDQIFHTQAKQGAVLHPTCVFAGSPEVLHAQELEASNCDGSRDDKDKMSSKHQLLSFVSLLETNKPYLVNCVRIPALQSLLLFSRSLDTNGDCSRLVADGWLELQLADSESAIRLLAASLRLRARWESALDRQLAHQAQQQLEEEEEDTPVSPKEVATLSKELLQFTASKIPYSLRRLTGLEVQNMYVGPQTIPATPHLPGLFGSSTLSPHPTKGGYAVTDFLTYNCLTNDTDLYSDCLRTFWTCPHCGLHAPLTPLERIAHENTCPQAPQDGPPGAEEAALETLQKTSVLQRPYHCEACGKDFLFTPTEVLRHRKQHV
Test: pull-down; purified T7-DHX34 (wild-type or deletion constructs) on T7 agarose beads incubated with recombinant UPF1, UPF2, UPF3b or purified full-length FLAG-UPF1 in buffer D for 2 hr at 4°C
Conditions: both partners purified

B1: FLAG-UPF1 (wild-type) (natural protein, human, UniProt Q92900-2 1-1118, looked up)
chain: MSVEAYGPSSQTLTFLDTEEAELLGADTQGSEFEFTDFTLPSQTQTPPGGPGGPGGGGAGGPGGAGAGAAAGQLDAQVGPEGILQNGAVDDSVAKTSQLLAELNFEEDEEDTYYTKDLPIHACSYCGIHDPACVVYCNTSKKWFCNGRGNTSGSHIVNHLVRAKCKEVTLHKDGPLGETVLECYNCGCRNVFLLGFIPAKADSVVVLLCRQPCASQSSLKDINWDSSQWQPLIQDRCFLSWLVKIPSEQEQLRARQITAQQINKLEELWKENPSATLEDLEKPGVDEEPQHVLLRYEDAYQYQNIFGPLVKLEADYDKKLKESQTQDNITVRWDLGLNKKRIAYFTLPKTDSDMRLMQGDEICLRYKGDLAPLWKGIGHVIKVPDNYGDEIAIELRSSVGAPVEVTHNFQVDFVWKSTSFDRMQSALKTFAVDETSVSGYIYHKLLGHEVEDVIIKCQLPKRFTAQGLPDLNHSQVYAVKTVLQRPLSLIQGPPGTGKTVTSATIVYHLARQGNGPVLVCAPSNIAVDQLTEKIHQTGLKVVRLCAKSREAIDSPVSFLALHNQIRNMDSMPELQKLQQLKDETGELSSADEKRYRALKRTAERELLMNADVICCTCVGAGDPRLAKMQFRSILIDESTQATEPECMVPVVLGAKQLILVGDHCQLGPVVMCKKAAKAGLSQSLFERLVVLGIRPIRLQVQYRMHPALSAFPSNIFYEGSLQNGVTAADRVKKGFDFQWPQPDKPMFFYVTQGQEEIASSGTSYLNRTEAANVEKITTKLLKAGAKPDQIGIITPYEGQRSYLVQYMQFSGSLHTKLYQEVEIASVDAFQGREKDFIILSCVRANEHQGIGFLNDPRRLNVALTRARYGVIIVGNPKALSKQPLWNHLLNYYKEQKVLVEGPLNNLRESLMQFSKPRKLVNTINPGARFMTTAMYDAREAIIPGSVYDRSSQGRPSSMYFQTHDQIGMISAGPSHVAAMNIPIPFNLVMPPMPPPGYFGQANGPAAGRGTPKGKTGRGGRQKNRFGLPGPSQTNLPNSQASQDVASQPFSQGALTQGYISMSQPSQMSQPGLSQPELSQDSYLGDEFKSQIDVALSQDSTYQGERAYQHGGVTGLSQY
notes: UPF1, human, full length; Plasmid named pcDNA3 x FLAG-UPF1 in the methods; also called purified full-length FLAG-UPF1; source: HEK293T, transiently transfected, in lysate
- binding result: binds
